Positions count from the first letter of the chain named.
T1: His/Avi-CynoIL18BP (recombinant cynomolgus IL-18BP with His and Avi tags) (cynomolgus monkey)
T1 construct: also called cynomolgus IL-18BP-Avi-His
T1 chain: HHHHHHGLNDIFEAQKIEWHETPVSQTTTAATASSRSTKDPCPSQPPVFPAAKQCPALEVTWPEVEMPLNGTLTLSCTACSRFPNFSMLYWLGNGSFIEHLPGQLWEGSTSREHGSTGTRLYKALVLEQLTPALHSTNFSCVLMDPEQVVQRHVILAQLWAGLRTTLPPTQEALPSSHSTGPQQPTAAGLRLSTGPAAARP

T2: Avi/HisMsIL18BPd (recombinant mouse IL-18BP with Avi and poly-His tags) (mouse, biotinylated with BirA on the Avi tag in some assays)
T2 chain: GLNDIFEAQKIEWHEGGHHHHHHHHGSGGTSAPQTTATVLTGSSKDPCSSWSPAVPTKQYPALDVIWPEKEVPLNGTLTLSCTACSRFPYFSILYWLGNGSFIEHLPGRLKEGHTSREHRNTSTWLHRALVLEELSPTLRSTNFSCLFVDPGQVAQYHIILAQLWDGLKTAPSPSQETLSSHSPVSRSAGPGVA

T3: Avi/His-HuIL18BPa (recombinant human IL-18BP isoform A with Avi and poly-His tags) (human, biotinylated with BirA on the Avi tag in some assays)
T3 chain: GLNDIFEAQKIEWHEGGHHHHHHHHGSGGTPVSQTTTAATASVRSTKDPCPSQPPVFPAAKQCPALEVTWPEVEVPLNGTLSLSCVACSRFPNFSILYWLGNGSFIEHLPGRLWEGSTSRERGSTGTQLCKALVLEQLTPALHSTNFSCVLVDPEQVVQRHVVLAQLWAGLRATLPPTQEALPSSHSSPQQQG

T4: mouse IL-18BPd-human IgG Fc (R&D Systems, Cat. #122-BP-100) (mouse; human, UniProt Q9Z0M9 29-193)
T4 construct: Bought; also called mouse IL-18BPd-Fc Chimera
T4 sequence (looked up): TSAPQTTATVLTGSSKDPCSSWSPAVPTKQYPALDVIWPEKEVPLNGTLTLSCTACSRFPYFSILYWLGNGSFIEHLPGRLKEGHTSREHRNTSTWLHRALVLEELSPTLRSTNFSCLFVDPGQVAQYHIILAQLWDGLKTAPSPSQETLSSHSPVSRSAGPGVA

B1: anti-IL18BP antibody BP-01 (antibody, human IgG1, V domains shown)
VH: QVQLQQSGPEVVRPGVSVKISCKGSGYTFTDFAMYWVKQSHAKSLEWIGVISTDNGDTSYNQKFKGKATMTVDKSSSTAYMELDRLTSEDSAIYYCARSRGPFDYWGQGTALTVSS
VL: DIVMTQSHKFKSTSVGDRVNITCKASQDVGTAVAWYQQKPGQSPKLLIYWASTRHIGVPDRFTGSGSGTDFTLTIRNVQSEDLADYFCQRYSSYPWTFGGGTKLEIK
B2: anti-IL18BP antibody BP-03 (antibody, human IgG1, V domains shown)
VH: EVQLQQSGPELVKPGASVKIPCKASGYTFTDYNMDWVKQSHGKSLEWIGNINTDNGGTVYNQKFKGKATLTVDQSSSTAYMELRSLTSEDTAVYYCARSDTTVVASRYYAMDYWGQGTSVTVSS
VL: DIVLTQSPASLAMSLGKRATISCRASESVSIIGTNLIHWYQQKPGQPPKLLIYHASNLETGVPARFSGSGSRTDFTLTIDPVEEDDVAIYYCLQSRKIPPTFGGGTKLEIK
B3: anti-IL18BP antibody BP-07 (antibody, human IgG1, V domains shown)
VH: EVQLQQSGPELVKPGASVKISCRASGFTITDYNMDWVRQSHGKSLEWIGNINLNNGGSIYNQKFKGKATLTIDKSSSTAYMELRSLTSEDTAVYYCARSDTTVVASRYYAMDYWGQGTSVTVSS
VL: B2 VL with A64V
B4: anti-IL18BP antibody BP-09 (antibody, human IgG1, V domains shown)
VH: QVQLQQSGAELVRPGASVTLSCKASGYRFTDYAMHWVKQTPVHGLQWIGIIDPETGDTAFNQKFKGKATLTADKSSSTAYMELSSLTSEDSAVYYCTRPRGAMDYWGQGTSVTVSS
VL: B1 VL with K11M, V15G, N20S, Q42I, I56T, T74A, R76S, R90Q, Y94H, W96Y
B5: anti-IL18BP antibody BP-10 (antibody, human IgG1, V domains shown)
VH: QVQLQQPGAERVEPGASVRLSCKTSGYTFTNYWMHWVKQRPGQGLEWIGMIHPESGSTNNNEKFKSKATLTVDKSSSTAYMQLSSLTSEDSAVYYCARWDRGYFDYWGQGTTLTVSS
VL: DIVMTQSHKFMSTSVGDRVSITCKASQDVRSTVGWYQQRPGQSPKLLIYWTSTRHTGVPDRFTGSGSGTDYTLTISSVQAEDLALYYCQQHYSTPYTFGGGTTLEIK
B6: anti-IL18BP antibody BP-12 (antibody, human IgG1, V domains shown)
VH: EVQLQQSGPELVKPGASVKMSCKTSGYTFTEYTMHWVKQSHGKSLEWIGGVNPNNGGTTYNQKFRDKATLTVDKSSSTTYMEVRTLTSDDSAVYYCAPLWRVFDYWGQGTTLTVSS
VL: DIVMTQSHKFMSSSVGDRVSITCKASQDVGTAVAWYQQKPGQSPKLLIYWASTRHTGVPDRFTGSGSGTDFTLTISNVQSEDLADYFCHQFSRYPLTFGAGTKLELK
B7: anti-IL18BP antibody BP-13 (antibody, human IgG1, V domains shown)
VH: QVQLQQSGAELVRPGASVTLSCKASGYTFTDYEMHWVKQTPVHGLEWIGPIDPETGDTAYNQKFKGQATLTADKSSSTAYMELSSLTSEDSAVYYCTRGSRGVFDYWGQGTALTVSS
VL: DIVMTQSHKFMSTSVGDRVSITCKASQDVGTAVAWYQQKPGQSPKLLIYWASARHTGVPDRFTGSGSGTDFTLTISNVQSEDLADYFCQHYFNFPRTFGGGTKLEIT
B8: anti-IL18BP antibody BP-14 (antibody, human IgG1, V domains shown)
VH: QVQLVQSGAEVKKPGASVKVSCKASGYTFTGYYMHWVRQAPGQGLEWMGIINPRGGSTSHAQKFQGRVTMTRDTSTSTVYMELSSLRSEDTAVYYCARGLELHWFDPWGQGTLVTVSS
VL: DIQMTQSPSSLSASVGDRVTITCRASQNIRSWLAWYQQKPGKAPKLLIYAASSLQSGVPSRFSGSGSGTDFTLTISSLQPEDFATYYCQQANSFPYTFGQGTKLEIK

Assays:
[1] = molecular target: T1, His/Avi-CynoIL18BP (recombinant …); assay: SPR Carterra LSA, IgG immobilized
[2] = molecular target: T2, Avi/HisMsIL18BPd (recombinant mouse …); assay: cell-based or functional assay
[3] = molecular target: T3, Avi/His-HuIL18BPa (recombinant human …); assay: cell-based or functional assay
[4] = molecular target: T1, His/Avi-CynoIL18BP (recombinant …); assay: cell-based or functional assay
[5] = molecular target: T1, His/Avi-CynoIL18BP (recombinant …); assay: blocking ELISA, competitor rhesus IL-18
[6] = molecular target: T1, His/Avi-CynoIL18BP (recombinant …); assay: ELISA, coated IL-18BP
[7] = molecular target: T2, Avi/HisMsIL18BPd (recombinant mouse …); assay: ELISA, coated IL-18BP
[8] = molecular target: T3, Avi/His-HuIL18BPa (recombinant human …); assay: ELISA, coated IL-18BP
[9] = molecular target: T4, mouse IL-18BPd-human IgG Fc (R&D …); assay: blocking ELISA, competitor mouse IL-18
[10] = molecular target: T3, Avi/His-HuIL18BPa (recombinant human …); assay: blocking ELISA, competitor human IL-18
[11] = molecular target: T3, Avi/His-HuIL18BPa (recombinant human …); assay: SPR Carterra LSA, IgG immobilized

Binder	Kd [1]	EC50 of IFNγ release, mouse splenocytes [2]	Fold change of IFNγ at 10 µg/ml vs baseline, mouse splenocytes [2]	EC50 of IFNγ release, human PBMC [3]	Fold change of IFNγ at 10 µg/ml vs baseline, human PBMC [3]	% of Max Gamma, human NK cells [4]	EC50 of IFNγ release, human NK cells [4]	blocking ELISA signal normalized to isotype control (=1) [5]	ELISA binding ratio (fold-change over background) [6]	ELISA binding ratio (fold-change over background) [7]	ELISA binding ratio (fold-change over background) [8]	blocking ELISA signal normalized to isotype control (=1) [9]	blocking ELISA signal normalized to isotype control (=1) [10]	Kd [11]
B1	12.1 nM	8.36 nM	1.65 fold	0.75 nM	14.9 fold	52.2%	12.5 nM	0.795 ratio to isotype control	47.4 fold over background	36.7 fold over background	40.7 fold over background	0.316 ratio to isotype control	0.076 ratio to isotype control	
B2	2.34 nM	4.49 nM	5.93 fold	1.14 nM	11.3 fold			0.996 ratio to isotype control	36.5 fold over background	41.6 fold over background	41.9 fold over background	0.157 ratio to isotype control	0.151 ratio to isotype control	4.1 nM
B3		8.16 nM	2.78 fold	1.66 nM	16.6 fold			0.999 ratio to isotype control	31.1 fold over background	39.3 fold over background	38.5 fold over background	0.156 ratio to isotype control	0.147 ratio to isotype control	2.7 nM
B4	1.4 nM	426 nM	2.88 fold	1.41 nM	15.4 fold	46.6%	51.7 nM	0.315 ratio to isotype control	44.9 fold over background	32.7 fold over background	44.4 fold over background			2.01 nM
B5	0.02 nM	538 nM	2.85 fold	2.05 nM	15.5 fold	55.2%	6 nM	0.28 ratio to isotype control	48.1 fold over background	40.8 fold over background	42.1 fold over background	0.326 ratio to isotype control	0.067 ratio to isotype control	1 nM
B6	0.5 nM	15.7 nM	1.88 fold	6.09 nM	10.3 fold	76.5%	70 nM	0.36 ratio to isotype control	44 fold over background	34.2 fold over background	43.2 fold over background	0.351 ratio to isotype control	0.117 ratio to isotype control	7.6 nM
B7	0.3 nM	640 nM	1.74 fold	3.89 nM	11.8 fold	54.1%	39.7 nM	0.331 ratio to isotype control	49 fold over background	16.9 fold over background	44.7 fold over background	0.53 ratio to isotype control	0.128 ratio to isotype control	7.2 nM
B8		2.93 nM	3.49 fold	3.47 nM	8.86 fold					45.1 fold over background	36.3 fold over background	0.202 ratio to isotype control	0.069 ratio to isotype control	3.2 nM

Reference: patent US20250333523A1 (Alector, published 2025)
